Experimental data: article PMC5963807, “Assembly-hub function of ER-localized SNARE proteins in biogenesis of tombusvirus replication compartment” (PLoS Pathogens, 2018)

T1: FLAG/His6-p33 (Tomato bushy stunt virus, UniProt P15962 1-296)
T1 construct: p33 replication protein of Tomato bushy stunt virus (TBSV); also called FLAG-p33; FLAG-tagged p33; source: yeast, co-expressed, detergent-solubilized membrane fraction; not shown: FLAG, N-terminal, kept; His6, N-terminal, kept
T1 sequence: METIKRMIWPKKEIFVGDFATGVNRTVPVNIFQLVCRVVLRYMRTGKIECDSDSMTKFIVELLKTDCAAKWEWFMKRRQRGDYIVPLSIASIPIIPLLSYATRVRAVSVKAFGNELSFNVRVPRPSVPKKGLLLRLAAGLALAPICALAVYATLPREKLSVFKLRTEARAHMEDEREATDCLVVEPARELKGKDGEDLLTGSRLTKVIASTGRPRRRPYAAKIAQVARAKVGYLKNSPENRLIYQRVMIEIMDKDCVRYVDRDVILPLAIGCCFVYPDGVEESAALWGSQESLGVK

B1: eIF4AIII-like RH2 DEAD-box helicase (enzyme, UniProt Q94A52 1-408, looked up)
chain: MATANPGRGGGRRGGGAMDDDKLVFETTDGIEPITSFNDMGIKEDVLRGVYEYGFEKPSAIQQRAVMPILQGRDVIAQAQSGTGKTSMIALSVCQVVDTSSREVQALILSPTRELATQTEKTIQAIGLHANIQAHACIGGNSVGEDIRKLEHGVHVVSGTPGRVCDMIKRRSLRTRAIKLLILDESDEMLSRGFKDQIYDVYRYLPPDLQVCLVSATLPHEILEMTSKFMTEPVKILVKRDELTLEGIKQFFVAVEKEEWKFDTLCDLYDTLTITQAVIFCNTKRKVDYLSEKMRSHNFTVSSMHGDMPQKERDAIMNEFRSGDSRVLITTDVWARGIDVQQVSLVINYDLPNNRELYIHRIGRSGRFGRKGVAINFVKSDDIKILRDIEQYYSTQIDEMPMNVADLI
notes: eIF4AIII-like RH2 DEAD-box helicase; source: yeast, detergent-solubilized membrane fraction
B2: His6-VAP27-1 (natural protein, UniProt Q8VZ95 1-256, looked up)
chain: MSNIDLIGMSNRDLIGMSNSELLTVEPLDLQFPFELKKQISCSLYLTNKTDNNVAFKVKTTNPKKYCVRPNTGVVLPRSTCEVLVTMQAQKEAPSDMQCKDKFLLQGVIASPGVTAKEVTPEMFSKEAGHRVEETKLRVTYVAPPRPPSPVHEGSEEGSSPRASVSDNGHGSEFSFERFIVDNKAGHQENTSEARALITKLTEEKQSAIQLNNRLQRELDQLRRESKKSQSGGIPFMYVLLVGLIGLILGYIMKRT
notes: VAP27-1, plant ortholog of the yeast Scs2 VAP protein; also called 6xHis-tagged VAP27-1 (Scs2 ortholog); Vap27-1 (Scs2-like); source: yeast, co-expressed, detergent-solubilized membrane fraction; not shown: His6, N-terminal, kept
B3: Vps4p AAA+ ATPase (enzyme, yeast (S. cerevisiae), UniProt P52917 1-437, looked up)
chain: MSTGDFLTKGIELVQKAIDLDTATQYEEAYTAYYNGLDYLMLALKYEKNPKSKDLIRAKFTEYLNRAEQLKKHLESEEANAAKKSPSAGSGSNGGNKKISQEEGEDNGGEDNKKLRGALSSAILSEKPNVKWEDVAGLEGAKEALKEAVILPVKFPHLFKGNRKPTSGILLYGPPGTGKSYLAKAVATEANSTFFSVSSSDLVSKWMGESEKLVKQLFAMARENKPSIIFIDEVDALTGTRGEGESEASRRIKTELLVQMNGVGNDSQGVLVLGATNIPWQLDSAIRRRFERRIYIPLPDLAARTTMFEINVGDTPCVLTKEDYRTLGAMTEGYSGSDIAVVVKDALMQPIRKIQSATHFKDVSTEDDETRKLTPCSPGDDGAIEMSWTDIEADELKEPDLTIKDFLKAIKSTRPTVNEDDLLKQEQFTRDFGQEGN
notes: Vps4p AAA+ ATPase (an ESCRT protein) of yeast; also called Vps4 AAA ATPase; source: yeast, detergent-solubilized membrane fraction
B4: His6-Osh6p (natural protein, yeast (S. cerevisiae), UniProt Q02201 1-448, looked up)
chain: MGSKKLTVGSDSHRLSKSSFSSNKSSHSATKDQPIDTDDIDEDDESGHNIILNIISQLRPGCDLTRITLPTFILEKKSMLERVTNQLQFPEFLLQAHSEKDPLKRFLYVMKWYLAGWHIAPKAVKKPLNPVLGEYFTAYWDLPNKQQAYYISEQTSHHPPECAYFYMIPESSIRVDGVVIPKSRFLGNSSAAMMDGSTVLQFLDIKDGNGKPEKYVLTQPNVYVRGILFGKMRIELGDHMIIKSPNFQADIEFKTKGYVFGTYDAIEGTVKDYDGNAYYEISGKWNDVMYLKDLKQPRSSPKVFLDTHKESPLRPKVRPLSEQGEYESRKLWKKVTDALAVRNHPVATEEKFQIEDHQRQLAKKRIEDGVEFHPKLFRRSKPGEDLDYCIYKNIPVDEDPEKQIRSILQIAPILPGQQFTDKFFIPAFEKIKSQKKMIENEKQNPAKQ
notes: also called 6xHis-tagged Osh6; Osh6 ORP (OSBP1-like); source: yeast, co-expressed, detergent-solubilized membrane fraction; not shown: His6, N-terminal, kept
B5: Pex19p shuttle protein (natural protein, yeast (S. cerevisiae), UniProt Q07418 1-342, looked up)
chain: MNENEYDNFDDLDDLLDEDPTKLDEAEPDDVQAKGSVYNDSENKEKNAESKDSDGVQVANESEEDPELKEMMVDLQNEFANLMKNNGNENNVKTEDFNKLISALEEAAKVPHQQMEQGCSSLKSNSTDKGTVNGSNPGFKNIVSNTLDRLKENGNKVDTSLAEETKESQRSGQNNNIDDILSQLLDQMVASGGKESAENQFDLKDGEMDDAITKILDQMTSKEVLYEPMKEMRSEFGVWFQENGENEEHKEKIGTYKRQFNIVDEIVNIYELKDYDELKHKDRVTELLDELEQLGDSPIRSANSPLKHGNEEEELMKMLEIDGNDPNLGNLDKELTDGCKQQ
notes: Pex19p peroxisome membrane-biogenesis protein of yeast; source: yeast, detergent-solubilized membrane fraction
B6: Tef1 eEF1A translation elongation factor (natural protein, yeast (S. cerevisiae), UniProt P02994 1-458, looked up)
chain: MGKEKSHINVVVIGHVDSGKSTTTGHLIYKCGGIDKRTIEKFEKEAAELGKGSFKYAWVLDKLKAERERGITIDIALWKFETPKYQVTVIDAPGHRDFIKNMITGTSQADCAILIIAGGVGEFEAGISKDGQTREHALLAFTLGVRQLIVAVNKMDSVKWDESRFQEIVKETSNFIKKVGYNPKTVPFVPISGWNGDNMIEATTNAPWYKGWEKETKAGVVKGKTLLEAIDAIEQPSRPTDKPLRLPLQDVYKIGGIGTVPVGRVETGVIKPGMVVTFAPAGVTTEVKSVEMHHEQLEQGVPGDNVGFNVKNVSVKEIRRGNVCGDAKNDPPKGCASFNATVIVLNHPGQISAGYSPVLDCHTAHIACRFDELLEKNDRRSGKKLEDHPKFLKSGDAALVKFVPSKPMCVEAFSEYPPLGRFAVRDMRQTVAVGVIKSVDKTEKAAKVTKAAQKAAKK
notes: Tef1 eEF1A translation elongation factor of yeast; source: yeast, detergent-solubilized membrane fraction
B7: Cdc34 E2 enzyme (enzyme, yeast (S. cerevisiae), UniProt P14682 1-295, looked up)
chain: MSSRKSTASSLLLRQYRELTDPKKAIPSFHIELEDDSNIFTWNIGVMVLNEDSIYHGGFFKAQMRFPEDFPFSPPQFRFTPAIYHPNVYRDGRLCISILHQSGDPMTDEPDAETWSPVQTVESVLISIVSLLEDPNINSPANVDAAVDYRKNPEQYKQRVKMEVERSKQDIPKGFIMPTSESAYISQSKLDEPESNKDMADNFWYDSDLDDDENGSVILQDDDYDDGNNHIPFEDDDVYNYNDNDDDDERIEFEDDDDDDDDSIDNDSVMDRKQPHKAEDESEDVEDVERVSKKI
notes: Cdc34 ubiquitin-conjugating enzyme of yeast; also called Cdc34 ubiquitin-conjugating enzyme; source: yeast, detergent-solubilized membrane fraction
B8: Pbp2 RNA binding protein (natural protein, UniProt P38151 1-413, looked up)
chain: MSTETTKPSITTTPTTVLVSPNTLKRKKGEDTSEEQLEAEIKRVALKDADSHSDNDHDSPDNVPSDVHLRMLCLVKHASLIVGHKGATISRIKSETSARINISNNIRGVPERIVYVRGTCDDVAKAYGMIVRALLEEHGNEDNGEDIEISINLLIPHHLMGCIIGKRGSRLREIEDLSAAKLFASPNQLLLSNDRILTINGVPDAIHIATFYISQTLLNFQMESPQKNVKRSIYYQPTQFNSVLIDHSQPNTIFHQRNHQYHPSDKLLSYKPNKNLPISSTLLSMATPQYTTASVANATAFQPNFVIPNVTVLDGPVISPAPGNHLLMNFVQQEIFIDEKFVGNVIGKDGKHINSVKESTGCSIIIQDPVEGSSERRLTIRGTFMASQAAIMLISNKIEIDRSNAERKRRSPL
notes: source: yeast, detergent-solubilized membrane fraction
B9: Rpn11 deubiquitinase (enzyme, yeast (S. cerevisiae), UniProt P43588 1-306, looked up)
chain: MERLQRLMMNSKVGSADTGRDDTKETVYISSIALLKMLKHGRAGVPMEVMGLMLGEFVDDYTVNVVDVFAMPQSGTGVSVEAVDDVFQAKMMDMLKQTGRDQMVVGWYHSHPGFGCWLSSVDVNTQKSFEQLNSRAVAVVVDPIQSVKGKVVIDAFRLIDTGALINNLEPRQTTSNTGLLNKANIQALIHGLNRHYYSLNIDYHKTAKETKMLMNLHKEQWQSGLKMYDYEEKEESNLAATKSMVKIAEQYSKRIEEEKELTEEELKTRYVGRQDPKKHLSETADETLENNIVSVLTAGVNSVAIK
notes: Rpn11 deubiquitinase, co-opted cellular host factor in yeast; source: yeast, detergent-solubilized membrane fraction
B10: Vps23p ESCRT factor (natural protein, yeast (S. cerevisiae), UniProt P25604 1-385, looked up)
chain: MSANGKISVPEAVVNWLFKVIQPIYNDGRTTFHDSLALLDNFHSLRPRTRVFTHSDGTPQLLLSIYGTISTGEDGSSPHSIPVIMWVPSMYPVKPPFISINLENFDMNTISSSLPIQEYIDSNGWIALPILHCWDPAAMNLIMVVQELMSLLHEPPQDQAPSLPPKPNTQLQQEQNTPPLPPKPKSPHLKPPLPPPPPPQPASNALDLMDMDNTDISPTNHHEMLQNLQTVVNELYREDVDYVADKILTRQTVMQESIARFHEIIAIDKNHLRAVEQAIEQTMHSLNAQIDVLTANRAKVQQFSSTSHVDDEDVNSIAVAKTDGLNQLYNLVAQDYALTDTIECLSRMLHRGTIPLDTFVKQGRELARQQFLVRWHIQRITSPLS
notes: Vps23p ESCRT-I factor of yeast; also called Vps23 ESCRT I; source: yeast, detergent-solubilized membrane fraction
B11: Tdh2p (GAPDH) (enzyme, yeast (S. cerevisiae), UniProt P00358 1-332, looked up)
chain: MVRVAINGFGRIGRLVMRIALQRKNVEVVALNDPFISNDYSAYMFKYDSTHGRYAGEVSHDDKHIIVDGHKIATFQERDPANLPWASLNIDIAIDSTGVFKELDTAQKHIDAGAKKVVITAPSSTAPMFVMGVNEEKYTSDLKIVSNASCTTNCLAPLAKVINDAFGIEEGLMTTVHSMTATQKTVDGPSHKDWRGGRTASGNIIPSSTGAAKAVGKVLPELQGKLTGMAFRVPTVDVSVVDLTVKLNKETTYDEIKKVVKAAAEGKLKGVLGYTEDAVVSSDFLGDSNSSIFDAAAGIQLSPKFVKLVSWYDNEYGYSTRVVDLVEHVAKA
notes: Tdh2p glyceraldehyde-3-phosphate dehydrogenase of yeast; also called Tdh2 GAPDH; source: yeast, detergent-solubilized membrane fraction

Tests used:
Conditions in all cases: partners not purified
FLAG/His6-p33 [1] = biological target: T1, FLAG/His6-p33; assay: co-IP; FLAG-p33 purified from detergent-solubilized membrane fractions of wt yeast and of yeast co-expressing Ufe1ΔTM; co-purified cellular proteins measured by Western blotting; amount from WT yeast taken as 100%
FLAG/His6-p33 [2] = biological target: T1, FLAG/His6-p33; assay: co-IP; viral replicase purified by FLAG affinity from detergent-solubilized membrane fractions of yeasts expressing FLAG-p33, FLAG-p92 and the repRNA; WT yeast or yeast depleted of Ufe1p (GALS::UFE1) or Use1p (GAL1::USE1) on glucose; Western blot with anti-6xHis
FLAG/His6-p33 [3] = biological target: T1, FLAG/His6-p33; assay: co-IP; FLAG-p33 purified from detergent-solubilized membrane fractions of wt yeast and of yeast co-expressing Ufe1ΔTM; co-purified cellular proteins measured by Western blotting; amount from WT yeast taken as 100%; remark: listed apart in the source

Binder | percentage of host protein co-purified with p33 from yeast expressing Ufe1ΔTM (WT yeast = 100%) (FLAG/His6-p33 [1]) | fold reduction of the co-purified amount in Ufe1p- or Use1p-depleted yeast against WT yeast (FLAG/His6-p33 [2]) | fold reduction of the co-purified amount in yeast expressing Ufe1ΔTM against wt yeast (FLAG/His6-p33 [3])
B1 | 70 ± 18% |  | 
B2 | 68 ± 30% | ~5 fold | 
B3 | 44 ± 27% |  | 
B4 | 59 ± 24% | ~7 fold | ~3 fold
B5 | 56 ± 13% |  | 
B6 | 67 ± 25% |  | 
B7 | 109 ± 14% |  | 
B8 | 122 ± 15% |  | 
B9 | 103 ± 6% |  | 
B10 | 106 ± 7% |  | 
B11 | 64 ± 17% |  | 
